Laboratory results reported in publication PMC5112522.
pKd: −log10 of the molar value.

Tests used:
[1] = biological target: Recombinant gp41 protein from HIV-1 (HXB2 strain) (HIV-1 (HXB2 strain)) (UniProt P04578); assay: SPR; gp120 (115 RUs) and gp41 (45 RUs) amine-coupled on a CM4 chip; lectins as analytes (two-fold dilutions, 0-20 nM HHA, 0-4000 nM Ld WCFS1, 0-1000 nM Ld CMPG5300); 1:1 binding model, apparent KD; 25 °C, Biacore T200, HBS-P pH 7.4 (10 mM HEPES, 150 mM NaCl, 0.05% P20) with 10 mM CaCl2
[2] = biological target: Recombinant gp120 protein from HIV-1 strain IIIB (HIV-1 strain IIIB) (UniProt P04578); assay: as above
[3] = biological target: Recombinant gp120 protein from HIV-1 strain IIIB (HIV-1 strain IIIB) (UniProt P04578)

Substance | pKd [1] | koff [1] [s⁻¹] | kon [1] [M⁻¹ s⁻¹] | pKd [2] | koff [2] [s⁻¹] | kon [2] [M⁻¹ s⁻¹] | inhibition of HIV-1 infection in human CD4+ T-lymphocytic C8166 cell and Raji DCSIGN cultures (data not shown) [3] [µg/mL]
Lectin domain of Msa (Lp_1229) of Lactobacillus plantarum WCFS1 (from UniProt F9UN23 1-1010) (domain or fragment) | 5.48 | 0.0236 | 7150 | 5.20 | 0.0164 | 2620 | –
Lectin domain of Msl (Cmpg5300.05_29) of Lactobacillus plantarum CMPG5300 (domain or fragment) | 5.79 | 0.0288 | 22900 | 5.73 | 0.0564 | 30500 | > 200
Hippeastrum hybrid (amaryllis) lectin (HHA) (natural protein) | 9.08 | 0.00229 | 2.75e+06 | 8.88 | 0.00219 | 1.66e+06 | –
